The term Kd denotes the constant that tells how readily two partners part at equilibrium. Usually koff stands for the first-order rate constant of dissociation. Usually kon stands for the second-order rate constant of association.

This note sets out measurements from patent US20100183623A1 (INHIBITEX, published 2010).

Test [1] deals with T1, SdrF N1N2N3 (52-679), His-tagged recombinant A domain of S. epidermidis SdrF (Staphylococcus epidermidis (K28 genomic …, UniProt Q9KI14 53-678)).
T1 construct: expressed in E. coli; also called SdrF A domain
T1 sequence: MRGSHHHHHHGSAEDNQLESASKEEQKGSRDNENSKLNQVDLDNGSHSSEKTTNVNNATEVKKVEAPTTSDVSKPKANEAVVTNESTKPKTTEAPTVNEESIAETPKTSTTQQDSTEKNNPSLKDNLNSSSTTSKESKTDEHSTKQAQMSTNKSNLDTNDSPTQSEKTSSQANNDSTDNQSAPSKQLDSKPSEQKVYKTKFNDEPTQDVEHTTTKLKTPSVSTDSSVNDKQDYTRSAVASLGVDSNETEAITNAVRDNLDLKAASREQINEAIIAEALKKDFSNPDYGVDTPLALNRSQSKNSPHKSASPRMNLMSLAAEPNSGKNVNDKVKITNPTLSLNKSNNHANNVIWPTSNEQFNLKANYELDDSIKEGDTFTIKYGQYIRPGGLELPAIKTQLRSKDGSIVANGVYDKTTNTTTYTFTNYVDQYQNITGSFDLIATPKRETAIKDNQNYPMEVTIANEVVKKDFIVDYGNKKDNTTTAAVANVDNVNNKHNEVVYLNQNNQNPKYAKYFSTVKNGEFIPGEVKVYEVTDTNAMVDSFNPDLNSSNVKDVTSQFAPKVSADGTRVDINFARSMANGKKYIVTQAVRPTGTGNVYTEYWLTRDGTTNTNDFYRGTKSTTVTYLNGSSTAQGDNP
Briefly: Biacore, mAb captured via RAM-Fc, SdrF injected.

The target in test [2] is T2, SdrF N3 (517-679), His-tagged recombinant fragment (Staphylococcus epidermidis (K28 genomic …, UniProt Q9KI14 517-678)).
T2 construct: expressed in E. coli
T2 sequence: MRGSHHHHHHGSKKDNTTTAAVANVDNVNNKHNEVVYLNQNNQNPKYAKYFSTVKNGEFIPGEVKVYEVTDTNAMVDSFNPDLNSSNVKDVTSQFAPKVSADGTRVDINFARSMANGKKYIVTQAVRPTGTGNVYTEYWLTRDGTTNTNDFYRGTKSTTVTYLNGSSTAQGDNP
Briefly: ELISA, plate coated with SdrF N3. (In an ELISA, binding on a coated surface is turned into a signal by an enzyme label.)

Test [3] deals with T1, SdrF N1N2N3 (52-679), His-tagged …. Put plainly: ELISA, plate coated with SdrF N1N2N3, hybridoma supernatant.
Test [4] has the same target. Put plainly: Biacore 3000, mAb captured on anti-F(ab)2 chip, SdrF (N1N2N3) in flow. (In general: In SPR one partner is held on a chip, and binding of the other changes the refractive index at the surface.)
Test [5] has as its target T3, SdrF N2N3 (361-679), His-tagged recombinant fragment (Staphylococcus epidermidis (K28 genomic …, UniProt Q9KI14 361-678)).
T3 construct: expressed in E. coli
T3 sequence: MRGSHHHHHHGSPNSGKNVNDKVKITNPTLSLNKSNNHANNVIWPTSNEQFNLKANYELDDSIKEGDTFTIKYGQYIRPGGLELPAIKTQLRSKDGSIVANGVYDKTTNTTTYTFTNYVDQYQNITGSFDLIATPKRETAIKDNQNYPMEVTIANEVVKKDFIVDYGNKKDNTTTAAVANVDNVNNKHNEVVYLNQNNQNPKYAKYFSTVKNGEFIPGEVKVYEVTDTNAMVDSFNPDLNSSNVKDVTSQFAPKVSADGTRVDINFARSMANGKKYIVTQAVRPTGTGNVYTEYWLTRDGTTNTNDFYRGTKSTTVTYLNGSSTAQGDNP
Briefly: ELISA, plate coated with SdrF N2N3, hybridoma supernatant.

For test [6], the target named is T1, SdrF N1N2N3 (52-679), His-tagged …. Put plainly: Biacore 3000, ligand capture of mAb, SdrF (N1N2N3) in flow.
For test [7], the target named is T4, SdrF N2 (361-517), His-tagged recombinant fragment (Staphylococcus epidermidis (K28 genomic …, UniProt Q8CMP4 361-517)).
T4 construct: expressed in E. coli
T4 sequence: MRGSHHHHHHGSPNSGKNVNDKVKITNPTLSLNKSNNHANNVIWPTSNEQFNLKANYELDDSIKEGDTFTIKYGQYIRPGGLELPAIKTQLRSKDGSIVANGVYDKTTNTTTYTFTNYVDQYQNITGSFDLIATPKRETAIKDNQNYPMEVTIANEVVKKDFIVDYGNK
Briefly: ELISA, plate coated with SdrF N2.

B1: murine anti-SdrF monoclonal antibody 108-36 (antibody, V domains shown)
VH: QVTLRESGPGILQPSQTLSLTCSFSGFSLNTSGMGVTWIRQPSGKGLEWLANIYWDDDKRYNPSLKSRLTISKANSRNQVFLKITSVDTADTATYYCTRPNYLGTVYWYFDVWGAGTMVTVSS
VL: QIVLTQSPAIMSASPGEKVTMTCSASSSVSYMYWYQQKPGSSPRVLIYDTSNLASGVPVRFSGSGSGTSYSLTISRMEAEDAATYYCQQWNGYPPTFGAGTKLEVK
notes: Mouse hybridoma antibody (fusion F108)
Regarding B1, the “Biacore SdrF bound” value in test [1] is 146. For the same molecule, the binding result in test [2] is “no binding”. In addition, in test [3], the “ELISA OD405” value worked out at 0.77 OD405. In addition, in test [4], the Ka worked out at 4.52e+09 M⁻¹, the dissociation constant Kd amounted to 0.221 nM, the dissociation rate constant (koff) is 5.6e-05 s⁻¹ and the kon stood at 232000 M⁻¹ s⁻¹. Moreover, the “ELISA OD405” value in test [5] came to 0.72 OD405. Moreover, in test [6], the Ka came to 4.5e+09 M⁻¹, the Kd was 0.22 nM, the koff worked out at 5.6e-05 s⁻¹ and the kon worked out at 230000 M⁻¹ s⁻¹.

B2: murine anti-SdrF monoclonal antibody 110-15 (antibody, V domains shown)
VH: EVQLVESGGGLVKPGGSLKLSCAASGFAFSSYDMSWVRQTPEKRLEWVAYISSGGGITYYPDTVKGRFTISRDNAKNTLYVQMSSLKSEDTAIYYCTRHDRDSWFAYWGQGTLVTVSA
VL: QIVLTQSPAIMSASPGEEGTMTCSASSSVRYMYWYRQKPGSSPRLLIYDTSNLASGVPVRFSGSGSGTSYSLTISRMEAEDAATYYCQQWSSYPPTFGGGTKLEMK
notes: Mouse hybridoma antibody (fusion F110); also called Murine 110-15; 110-15VL-Mouse/110-15VH-Mouse
Consider B2, for which the “Biacore SdrF bound” value in test [1] came out at 153. The binding result in test [2] is reported as “no binding”. The “ELISA OD405” value in test [3] came to 0.63 OD405. In test [7], the binding result is on record as “no binding”. Further, in test [4], the Ka came out at 1.29e+09 M⁻¹, the Kd turned out to be 0.774 nM, the koff is 0.000164 s⁻¹ and the kon is 212000 M⁻¹ s⁻¹. Also, the “ELISA OD405” value in test [5] worked out at 0.7 OD405. Also, in test [6], the Ka was found to be 1.3e+08 M⁻¹, the Kd came out at 0.77 nM, the koff is 0.00016 s⁻¹ and the kon amounted to 210000 M⁻¹ s⁻¹.

B3: Humanized 108-36 (antibody, V domains shown)
VH: QVTLRESGPGILKPSQTLSLTCTFSGFSLNTSGMGVTWIRQPSGKGLEWLANIYWDDDKRYNPSLKSRLTISKANSRNQVFLKITSVDPVDTATYYCTRPNYLGTVYWYFDVWGQGTMVTVSS
VL: EIVLTQSPATMSASPGERVTMSCSASSSVSYMYWYQQKPGQSPRVLIYDTSNLASGVPSRFSGSGSGTSYSLTISSMEPEDAATYYCQQWNGYPPTFGGGTKLEVK
modifications: N-linked carbohydrate chain on the asparagine at position 30 of the variable heavy chain
notes: Humanized (veneered) variable regions with 'the appropriate light or heavy chain constant region', expressed in NSO cells; also called Hu108-36
On to B3, for which, in test [6], the Ka stood at 2.2e+09 M⁻¹, the dissociation constant (Kd) worked out at 0.46 nM, the koff turned out to be 6.3e-05 s⁻¹ and the kon was 140000 M⁻¹ s⁻¹.

B4: murine anti-SdrF monoclonal antibody 108-1 (antibody, V domains shown)
VH: EVQLQQSGAELVKPGASVKLSCTASGFNIKDTYIHWVKQRPEQGLEWIGRIDPANGNTHYDSQFQGKATITADTSSNTAYLQLSSLTSDDTAVYYCTRRVGYAMDYWGQGTSVTVSS
VL: DIVMTQSHKFMSTSVGDRVIITCKASQDVNTALAWYQQKPGQSPKLLIYSASYRYTGVPDRFTGSGSGTDFTFTISSVQAEDLAVYYCQQHYSTPPYTFGGGTKLEIK
notes: Mouse hybridoma antibody (Balb/C, fusion F108)
With B4, in test [1], the “Biacore SdrF bound” value was determined as 146. Besides, the “ELISA OD405” value in test [3] turned out to be 0.89 OD405. Also, in test [4], the Ka was found to be 6.2e+08 M⁻¹, the Kd is 1.61 nM, the koff came to 0.000134 s⁻¹ and the kon was found to be 82900 M⁻¹ s⁻¹. In addition, in test [5], the “ELISA OD405” value stood at 0.99 OD405. In test [6], the Ka was 6.2e+08 M⁻¹, the Kd is 1.6 nM, the koff amounted to 0.00013 s⁻¹ and the kon was found to be 83000 M⁻¹ s⁻¹.

B5: Humanized 108-1 (antibody, V domains shown)
VH: QVQLVQSGAEVVKPGASVKLSCKASGFNIKDTYIHWVKQRPGQGLEWIGRIDPANGNTHYDSQFQGKATITADTSTSTAYLQLSSLRSEDTAVYYCTRRVGYAMDYWGQGTTVTVSS
VL: DIVMTQSQKFMSTSVGDRVTITCKASQDVNTALAWYQQKPGQSPKLLIYSASYRYTGVPSRFSGSGSGTDFTFTISSVQAEDLAVYYCQQHYSTPPYTFGGGTKLEIK
notes: Humanized (veneered) variable regions spliced into plasmids with 'the appropriate light or heavy chain constant region', expressed in NSO cells
As for B5, in test [6], the Ka is 5.6e+08 M⁻¹, the Kd turned out to be 1.8 nM, the koff amounted to 0.00017 s⁻¹ and the kon turned out to be 94000 M⁻¹ s⁻¹.

B6: Humanized 110-15 (antibody, V domains shown)
VH: EVQLVESGGGLVQPGGSLKLSCAASGFAFSSYDMSWVRQTPEKRLEWVAYISSGGGITYYPDTVKGRFTISRDNSKNTLYVQMSSLRAEDTAVYYCTRHDRDSWFAYWGQGTLVTVSS
VL: EIVLTQSPGTMSASPGERGTMSCSASSSVRYMYWYRQKPGQSPRLLIYDTSNLASGVPARFSGSGSGTSYSLTISRMEAEDAATYYCQQWSSYPPTFGGGTKLEMK
notes: Humanized (veneered) variable regions with 'the appropriate light or heavy chain constant region', expressed in NSO cells; also called 110-15VL-Hu/110-15VH-Hu
With B6, in test [6], the Ka turned out to be 1.4e+09 M⁻¹, the Kd came to 0.74 nM, the koff was 0.00013 s⁻¹ and the kon is 170000 M⁻¹ s⁻¹.
